Reference: patent publication US20080032921A1
Read-outs that look alike come from different tables or passages of the source.

Columns and labels:
HLA-DR DRB4*0101 (human) [1] = assay: competition assay, purified HLA, inhibition of 125I-labelled reference peptide
HLA-DR DRB1*1302 (human) [2] = assay: as above
HLA-DR DRB1*1501 (human) [3] = assay: as above
HLA-DR DRB1*0101 (human) [4] = assay: as above
HLA-DR DRB1*0401 (human) [5] = assay: as above
HLA-DR DRB4*0101 (human) [6] = assay: competition with 125I-labelled reference peptide on purified HLA-DR
HLA-DR DRB1*1302 (human) [7] = assay: as above
HLA-DR DRB1*1501 (human) [8] = assay: as above
HLA-DR DRB1*0101 (human) [9] = assay: as above
HLA-DR DRB1*0301 (human) [10] = assay: as above
HLA-DR DRB1*0401 (human) [11] = assay: as above
HLA-DR DRB1*0405 (human) [12] = assay: competition assay, purified HLA, inhibition of 125I-labelled reference peptide
HLA-DR DRB1*0301 (human) [13] = assay: as above
HLA-DR DRB1*0404 (human) [14] = assay: as above
[15] = biological target: purified HLA DRB1*0405 (human); assay: competition with 125I-labelled reference peptide, purified HLA
[16] = biological target: purified HLA DRB1*1302 (human); assay: as above
[17] = biological target: purified HLA DRB1*0401 (human); assay: as above
[18] = biological target: purified HLA DRB1*0101 (human); assay: as above
[19] = biological target: purified HLA DRB1*0404 (human); assay: as above
[20] = biological target: purified HLA DRB1*0301 (human); assay: as above
[21] = biological target: purified HLA-DR DRB1*0405 (human); assay: as above
[22] = biological target: purified HLA-DR DRB1*0301 (human); assay: as above
[23] = biological target: purified HLA-DR DRB1*1501 (human); assay: as above
[24] = biological target: purified HLA-DR DRB1*0401 (human); assay: as above
[25] = biological target: purified HLA-DR DRB4*0101 (human); assay: as above
[26] = biological target: purified HLA-DR DRB1*0404 (human); assay: as above
[27] = biological target: purified HLA-DR DRB1*0101 (human); assay: as above
[28] = biological target: purified HLA-DR DRB5*0101 (human); assay: as above
[29] = biological target: purified HLA-DR DRB1*1302 (human); assay: as above
[30] = biological target: purified HLA-DR DRB1*1101 (human); assay: as above
HLA-DR DRB1*0405 (human) [31] = assay: competition with 125I-labelled peptide, purified HLA
HLA-DR DRB1*1101 (human) = assay: as above
HLA-DR DRB1*1501 (human) [32] = assay: as above
HLA-DR DRB1*0701 (human) = assay: as above
HLA-DR DRB1*0101 (human) [33] = assay: as above
HLA-DR DRB1*0301 (human) [34] = assay: as above
HLA-DR DRB1*0404 (human) [35] = assay: as above
HLA-DR DRB1*0401 (human) [36] = assay: as above
HLA-DR DRB1*0301 (human) [37] = assay: competition vs 125I-labeled peptide, purified HLA
HLA-DR DRB1*0405 (human) [38] = biological target: HLA-DR DRB1*0405 (human)
HLA-DR DRB1*1302 (human) [39] = biological target: HLA-DR DRB1*1302 (human)
HLA-DR DRB1*0101 (human) [40] = biological target: HLA-DR DRB1*0101 (human)
HLA-DR DRB1*0404 (human) [41] = biological target: HLA-DR DRB1*0404 (human)
HLA-DR DRB1*0401 (human) [42] = biological target: HLA-DR DRB1*0401 (human)
HLA-DR DRB5*0101 (human) = assay: competition with 125I-labelled peptide, purified HLA
HLA-DR DRB4*0101 (human) [43] = assay: as above
HLA-DR DRB1*0802 (human) = assay: as above
HLA-DR DRB1*1302 (human) [44] = assay: as above
HLA-DR DRB4*0101 (human) [45] = biological target: HLA-DR DRB4*0101 (human)
HLA-DR DRB1*1302 (human) [46] = assay: competition vs 125I-labeled peptide, purified HLA
HLA-DR DRB1*1501 (human) [47] = assay: competition vs 125I-labeled peptide, purified HLA
HLA-DR DRB1*0101 (human) [48] = assay: competition vs 125I-labeled peptide, purified HLA
HLA-DR DRB1*0401 (human) [49] = assay: competition vs 125I-labeled peptide, purified HLA
[50] = biological target: purified HLA-DR DRB1*0701 (human); assay: competition with 125I-labelled reference peptide, purified HLA
[51] = biological target: purified HLA-DR DRB1*0802 (human); assay: as above

VMRMGDLHSLQNRNG (modifications not checked) [Flu.NS2.125] showed an IC50 (HLA-DR DRB4*0101 (human) [1]) of 8820 nM, an IC50 (HLA-DR DRB1*1302 (human) [2]) of 1370 nM and an IC50 (HLA-DR DRB1*1501 (human) [3]) of 372 nM. The IC50 (HLA-DR DRB1*0101 (human) [4]) was 249 nM and the IC50 (HLA-DR DRB1*0401 (human) [5]) was 448 nM.

WAVYSKDNSIRIGSK (modifications not checked) [Flu.NA.77 peptide …] showed an IC50 (HLA-DR DRB4*0101 (human) [6]) of 19500 nM, an IC50 (HLA-DR DRB1*1302 (human) [7]) of 36 nM and an IC50 (HLA-DR DRB1*1501 (human) [8]) of 642 nM. For the same binder, the IC50 (HLA-DR DRB1*0101 (human) [9]) was 5400 nM, the IC50 (HLA-DR DRB1*0301 (human) [10]) was 291 nM and the IC50 (HLA-DR DRB1*0401 (human) [11]) was 1600 nM.

For QKAMMDQVRESRNPG (modifications not checked) [Flu.NP.238], the IC50 (HLA-DR DRB1*0405 (human) [12]) was 13100 nM, the IC50 (HLA-DR DRB1*1302 (human) [2]) was 10500 nM and the IC50 (HLA-DR DRB1*0101 (human) [4]) was 17600 nM. For the same binder, the IC50 (HLA-DR DRB1*0301 (human) [13]) was 450 nM, the IC50 (HLA-DR DRB1*0404 (human) [14]) was 1830 nM and the IC50 (HLA-DR DRB1*0401 (human) [5]) was 856 nM.

For GSYFFGDNAEEYDN (modifications not checked) [Flu.NP.488], the IC50 (HLA-DR DRB1*0405 (human) [12]) was 65 nM, the IC50 (HLA-DR DRB1*1302 (human) [2]) was > 10000 nM and the IC50 (HLA-DR DRB1*0101 (human) [4]) was > 10000 nM. For the same binder, the IC50 (HLA-DR DRB1*0301 (human) [13]) was 139 nM, the IC50 (HLA-DR DRB1*0404 (human) [14]) was > 10000 nM and the IC50 (HLA-DR DRB1*0401 (human) [5]) was 1950 nM.

In the case of NNMINNDLGPATAQM (modifications not checked) [Flu.PB1.535], the IC50 [15] is reported as > 10000 nM, the IC50 [16] is reported as 477 nM and the IC50 [17] is reported as 798 nM. It also gave an IC50 [18] of 3080 nM, an IC50 [19] of 1830 nM and an IC50 [20] of 527 nM.

LIQLIVSGRDEQSIA (modifications not checked) [Flu.PB2.384] gave an IC50 [21] of 460 nM, an IC50 [22] of 53 nM and an IC50 [23] of 420 nM. The IC50 [24] was 83 nM, the IC50 [25] was 9.9 nM and the IC50 [26] was 90 nM. The IC50 [27] was 3220 nM, the IC50 [28] was 1720 nM and the IC50 [29] was 4680 nM. The IC50 [30] was 2010 nM.

YIQMCTELKLSDYEG (modifications not checked) [Flu.NP.43] gave an IC50 (HLA-DR DRB1*0405 (human) [31]) of 2690 nM, an IC50 (HLA-DR DRB1*1101 (human)) of 5840 nM and an IC50 (HLA-DR DRB1*1501 (human) [32]) of 594 nM. For the same binder, the IC50 (HLA-DR DRB1*0701 (human)) was 5370 nM, the IC50 (HLA-DR DRB1*0101 (human) [33]) was 320 nM and the IC50 (HLA-DR DRB1*0301 (human) [34]) was 368 nM. For the same binder, the IC50 (HLA-DR DRB1*0404 (human) [35]) was 1640 nM and the IC50 (HLA-DR DRB1*0401 (human) [36]) was 392 nM.

With CEQIADSQHRSHRQM (modifications not checked) [Flu.M1.154] the IC50 (HLA-DR DRB1*0301 (human) [37]) was 804 nM, the IC50 (HLA-DR DRB1*0405 (human) [38]) was > 10000 nM and the IC50 (HLA-DR DRB1*1302 (human) [39]) was > 10000 nM. For the same binder, the IC50 (HLA-DR DRB1*0101 (human) [40]) was > 10000 nM, the IC50 (HLA-DR DRB1*0404 (human) [41]) was > 10000 nM and the IC50 (HLA-DR DRB1*0401 (human) [42]) was > 10000 nM.

TKKMVTQRTIGKKKQ (modifications not checked) [Flu.PB1.199] gave an IC50 (HLA-DR DRB5*0101 (human)) of 4.1 nM, an IC50 (HLA-DR DRB4*0101 (human) [43]) of 57 nM and an IC50 (HLA-DR DRB1*0802 (human)) of 55 nM. It also gave an IC50 (HLA-DR DRB1*1101 (human)) of 449 nM, an IC50 (HLA-DR DRB1*1302 (human) [44]) of 6120 nM and an IC50 (HLA-DR DRB1*1501 (human) [32]) of 9710 nM. It also gave an IC50 (HLA-DR DRB1*0701 (human)) of 14100 nM, an IC50 (HLA-DR DRB1*0101 (human) [33]) of 1150 nM and an IC50 (HLA-DR DRB1*0404 (human) [35]) of 62 nM. The IC50 (HLA-DR DRB1*0401 (human) [36]) was 71 nM.

TQGALLNDKHSNGTVKD (modifications not checked) [Flu.NA.115 peptide …] was tested, and the IC50 (HLA-DR DRB1*1302 (human) [7]) was 468 nM, the IC50 (HLA-DR DRB1*1501 (human) [8]) was 822 nM and the IC50 (HLA-DR DRB1*0301 (human) [10]) was 177 nM. For the same binder, the IC50 (HLA-DR DRB1*0401 (human) [11]) was 19000 nM, the IC50 (HLA-DR DRB4*0101 (human) [45]) was > 10000 nM and the IC50 (HLA-DR DRB1*0101 (human) [40]) was > 10000 nM.

LILYDKEEIRRIWRQ (modifications not checked) [Flu.NP.111] was tested, and the IC50 (HLA-DR DRB1*0405 (human) [12]) was 7500 nM, the IC50 (HLA-DR DRB1*1302 (human) [2]) was 3100 nM and the IC50 (HLA-DR DRB1*0101 (human) [4]) was 7180 nM. The IC50 (HLA-DR DRB1*0301 (human) [13]) was 22 nM, the IC50 (HLA-DR DRB1*0404 (human) [14]) was 262 nM and the IC50 (HLA-DR DRB1*0401 (human) [5]) was 12400 nM.

In the case of DILMRMSKMQLGSSS (modifications not checked) [Flu.NS2.87], the IC50 (HLA-DR DRB4*0101 (human) [1]) is reported as 11 nM, the IC50 (HLA-DR DRB1*1302 (human) [2]) is reported as 423 nM and the IC50 (HLA-DR DRB1*1501 (human) [3]) is reported as 748 nM. The IC50 (HLA-DR DRB1*0101 (human) [4]) was 2140 nM and the IC50 (HLA-DR DRB1*0401 (human) [5]) was 717 nM.

KSSFFRNVVWLIKKN (modifications not checked) [Flu.HA.156] showed an IC50 (HLA-DR DRB1*1302 (human) [46]) of 20 nM, an IC50 (HLA-DR DRB1*1501 (human) [47]) of 832 nM and an IC50 (HLA-DR DRB1*0101 (human) [48]) of 46 nM. For the same binder, the IC50 (HLA-DR DRB1*0401 (human) [49]) was 474 nM and the IC50 (HLA-DR DRB4*0101 (human) [45]) was > 10000 nM.

For ESAVLRGFLILGKED (modifications not checked) [Flu.PB2.690], the IC50 [21] was 7100 nM, the IC50 [50] was 2470 nM and the IC50 [23] was 39 nM. It also gave an IC50 [51] of 803 nM, an IC50 [24] of 13200 nM and an IC50 [25] of 1280 nM. For the same binder, the IC50 [26] was 110 nM, the IC50 [27] was 8.4 nM and the IC50 [28] was 303 nM. For the same binder, the IC50 [30] was 1030 nM.

For AGLLVSDGGPNLYNI (modifications not checked) [Flu.PB1.590], the IC50 [15] was > 10000 nM, the IC50 [16] was 105 nM and the IC50 [17] was 3000 nM. The IC50 [18] was 8120 nM, the IC50 [19] was 3490 nM and the IC50 [20] was 107 nM.
